Source: patent US20140178390A1 (published 2014)

T1: Cynomolgus CXCR7 (cynomolgus, UniProt P25106 1-362 (human entry))
T1 construct: On transfected HEK293 cells; also called cCXCR7; cyno CXCR7
T1 chain: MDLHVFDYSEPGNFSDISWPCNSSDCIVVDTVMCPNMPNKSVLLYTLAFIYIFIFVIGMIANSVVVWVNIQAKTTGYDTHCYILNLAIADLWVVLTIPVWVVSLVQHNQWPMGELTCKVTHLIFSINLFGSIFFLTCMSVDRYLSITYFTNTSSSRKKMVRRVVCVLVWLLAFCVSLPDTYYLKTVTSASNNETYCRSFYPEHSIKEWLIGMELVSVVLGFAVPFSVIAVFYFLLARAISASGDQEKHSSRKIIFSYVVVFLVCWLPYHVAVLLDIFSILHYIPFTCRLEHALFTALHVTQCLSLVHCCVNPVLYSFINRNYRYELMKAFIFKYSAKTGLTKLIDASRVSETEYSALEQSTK


Columns and labels:
Human CXCR7 [1] = molecular target: T2, Human CXCR7 (human, UniProt P25106 1-362); assay: phage ELISA on immobilized hCXCR7 VLPs, OD 450 nm
T2 construct: see assay field; also called hCXCR7
T2 sequence (P25106 whole entry): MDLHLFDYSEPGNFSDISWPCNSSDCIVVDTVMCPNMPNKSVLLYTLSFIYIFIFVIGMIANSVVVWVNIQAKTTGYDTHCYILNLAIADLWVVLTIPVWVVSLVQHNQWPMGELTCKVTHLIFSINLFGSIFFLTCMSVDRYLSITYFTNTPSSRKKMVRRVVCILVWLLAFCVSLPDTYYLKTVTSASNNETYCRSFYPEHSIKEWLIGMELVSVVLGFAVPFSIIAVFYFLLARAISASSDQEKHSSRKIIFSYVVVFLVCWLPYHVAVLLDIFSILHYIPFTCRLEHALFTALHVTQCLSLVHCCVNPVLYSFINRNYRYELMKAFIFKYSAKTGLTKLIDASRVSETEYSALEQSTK
Method: (§1) From all round 2 selection outputs clones were screened in phage ELISA on 2 units of immobilized CXCR7VLPs applying 10-fold dilutions of phage supernatant. […] The reaction was stopped with H₂SO₄ and the absorbance was measured at 450 nm using Sunrise TECAN spectrophotometer (TECAN). Nanobodies, showing a minimally 2-fold increased ELISA signal on hCXCR7VLPs over non-transfected control VLPs, were considered to be CXCR7 specific. CXCR7 specific Nanobodies were sequenced and redundant Nanobodies (identical AA sequence) were removed.

Human CXCR7 [2] = molecular target: T2, Human CXCR7; assay: FACS, Hek293 hCXCR7 over Hek293 wt cells
Method: (§2) Clones representing distinct Nanobody B-cell lineages were tested as periplasmic extracts for their binding to cell surface exposed CXCR7. In this assay, 5-fold dilutions of periplasmic extract were incubated with Hek293 hCXCR7 and Hek293 wt cells. Binding of the Nanobodies was detected using mouse anti-myc (Serotec), followed by anti-mouse IgG-PE (Jackson Immununoresearch).

Human CXCR7 [3] = molecular target: T2, Human CXCR7; assay: FACS, periplasmic extract on Hek293 hCXCR7 cells
Method: as §2

Human CXCR7 [4] = molecular target: T2, Human CXCR7; assay: phage ELISA, hCXCR7 VLPs over non-transfected control VLPs
Method: as §1

Human CXCR7 [5] = molecular target: T2, Human CXCR7; assay: [125I]-CXCL12 displacement on NIH3T3-hCXCR7 cells
Method: (§3) After incubation, cells were washed twice, lysed with RIPA buffer and the ¹²⁵I signal was measured.

Mouse CXCR7 [6] = molecular target: T3, Mouse CXCR7 (mouse, UniProt P56485 1-362); assay: FACS on HEK293 cells transfected with pcDNA3.1-mCXCR7, 800 nM Nanobody
T3 construct: On transfected HEK293 cells; also called mCXCR7
T3 sequence (P56485 whole entry): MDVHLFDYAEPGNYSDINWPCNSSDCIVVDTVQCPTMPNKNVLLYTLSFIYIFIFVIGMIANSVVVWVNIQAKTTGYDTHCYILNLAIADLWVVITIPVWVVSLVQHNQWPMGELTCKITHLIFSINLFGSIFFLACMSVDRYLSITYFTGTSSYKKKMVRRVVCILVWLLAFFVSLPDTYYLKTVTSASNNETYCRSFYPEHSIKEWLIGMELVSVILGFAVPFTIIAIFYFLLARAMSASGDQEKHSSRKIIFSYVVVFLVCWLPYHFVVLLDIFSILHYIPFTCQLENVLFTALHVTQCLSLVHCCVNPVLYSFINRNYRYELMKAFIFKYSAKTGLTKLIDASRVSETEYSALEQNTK
Text: (§4) HEK293 cells transfected respectively with pcDNA3.1-hCXCR7 and pcDNA3.1-mCXCR7 were used to test cross-reactive binding of Nanobodies to mouse CXCR7 in FACS analysis. […] Nanobody binding was detected using mouse anti-myc (Serotec) and anti-mouse IgG-PE (Jackson Immunoresearch) and Mab binding by goat anti-mouse IgG-PE (Jackson Immunoresearch).

Human CXCR7 [7] = molecular target: T2, Human CXCR7; assay: [125I]-CXCL12 displacement on NIH3T3-hCXCR7 cells, relative to cold SDF-1
Method: as §3

Cynomolgus CXCR7 = molecular target: T1, Cynomolgus CXCR7; assay: FACS on HEK293 cells expressing cynomolgus CXCR7, 800 nM Nanobody
Method: as §4
Cross-reactive binding to cynomolgus CXCR7 was assessed in the same way.

Human CXCR7 [8] = molecular target: T2, Human CXCR7; assay: FACS binding, purified protein on stable HEK-CXCR7 cells
Human CXCR7 [9] = molecular target: T2, Human CXCR7; assay: competition FACS with 4 nM biotinylated SDF-1 on HEK-hCXCR7 cells
Mouse CXCR7 [10] = molecular target: T3, Mouse CXCR7; assay: FACS on HEK293 cells transfected with pcDNA3.1-mCXCR7
Text: as §4

Binder | CXCR7-LP 2U/well [OD] (Human CXCR7 [1]) | Fold Hek CXCR7/CXCR4 (Human CXCR7 [2]) [fold] | Hek-CXCR7 [MCF] (Human CXCR7 [3]) | Fold CXCR7-LP/Null-LP (Human CXCR7 [4]) [fold] | Ki (Human CXCR7 [5]) [nM] | binding result (Mouse CXCR7 [6]) | Average SDF-1 displacement (%) (Human CXCR7 [7]) | binding result (Cynomolgus CXCR7) | Plateau [mcf] (Human CXCR7 [8]) | competition relative to unlabelled SDF-1 (%) (Human CXCR7 [9]) | binding result (Mouse CXCR7 [10])
Nanobody 08A05 with Tag-1 (VHH, periplasmic extract in the screening FACS) VHH: EVQLVESGGGLVQAGDSLRLSCAASGLTFSNYDMGWFRQAPGKEREFVGASWWSGGAPYYSDSVKGRFTISRDNAKNTVYLQANSLRPEDTAVYYCAAKRLRSFASGGSYDYWGQGTQVTVSS | 0.019 | 60.1 | 18600 | 2.4 |  |  |  |  |  |  | 
Nanobody 08A05 with Tag-2 (VHH, Purified from E. coli periplasm) VHH: EVQLVESGGGLVQAGDSLRLSCAASGLTFSNYDMGWFRQAPGKEREFVGASWWSGGAPYYSDSVKGRFTISRDNAKNTVYLQANSLRPEDTAVYYCAAKRLRSFASGGSYDYWGQGTQVTVSS |  |  |  |  | 13.6 | binds | 77 | binds | 28500 |  | 
Nanobody 07C03 with Tag-1 (VHH, periplasmic extract in the screening FACS) VHH: EVQLVESGGGLVQAGESLTLSCAASGRTLSAYIMGWFRQAPGKEREFVAGIWSGGYTHLADSAKGRFSISRDNAKNTVYLQMNGLKPEDTAVYYCAAGLRGRQYSNWGQGTQVTVSS | 0.053 | 73.2 | 23400 | 4.4 |  |  |  |  |  |  | 
Nanobody 07C03 with Tag-2 (VHH, Purified from E. coli periplasm) VHH: EVQLVESGGGLVQAGESLTLSCAASGRTLSAYIMGWFRQAPGKEREFVAGIWSGGYTHLADSAKGRFSISRDNAKNTVYLQMNGLKPEDTAVYYCAAGLRGRQYSNWGQGTQVTVSS |  |  |  |  | 12.2 | binds | 78 | binds | 33100 | > 95 | 
Nanobody 08A10 with Tag-1 (VHH, periplasmic extract in the screening FACS) VHH: EVQLVESGGGLVQAGGSLRLSCAASGSIFSIAAMGWYRQATGKQRELVATITDGGTTTYADSVKGRVTISRDRSANTVYLAMNNLKPDDTAVYYCYAYLRYTSRVPGDNYWGQGTQVTVSS | 0.104 | 85.1 | 27400 | 17.3 |  |  |  |  |  |  | 
Nanobody 08A10 with Tag-2 (VHH, Purified from E. coli periplasm) VHH: EVQLVESGGGLVQAGGSLRLSCAASGSIFSIAAMGWYRQATGKQRELVATITDGGTTTYADSVKGRVTISRDRSANTVYLAMNNLKPDDTAVYYCYAYLRYTSRVPGDNYWGQGTQVTVSS |  |  |  |  | 12.1 |  | 75 | binds | 34900 |  | no binding (tested: 800 nM)
Nanobody 01C10 with Tag-1 (VHH) VHH: EVQLVESGGGLVQTGASLRLSCAASGRTFSNYAMGWFRQAPGKERERVAAITPRAFTTYYADSVKGRFTISRDNAKNTAYLQMVSLKPEDTAVYYCAAQLVGSGSNLGRQESYAYWGQGTQVTVSS | 0.145 |  |  | 4.2 |  |  |  |  |  |  | 
Nanobody 01C10 with Tag-2 (VHH, Purified from E. coli periplasm) VHH: EVQLVESGGGLVQTGASLRLSCAASGRTFSNYAMGWFRQAPGKERERVAAITPRAFTTYYADSVKGRFTISRDNAKNTAYLQMVSLKPEDTAVYYCAAQLVGSGSNLGRQESYAYWGQGTQVTVSS |  |  |  |  | 20.7 | binds | 31 | binds |  |  | 
Mab 11G8 (R&D Systems) (antibody, V domains shown) VH: EVKLVESGGDLVQPGGSLKLSCATSGFTFSDYYMFWVRQTPEKRLEWVAYITNGGDRSYYSDTVTGRFIISRDNAKNTLYLQMSRLKSEDTAMYYCARQGNWAAWFVYWGQGTLVTVSA VL: DVLMTQTPLSLPVSLGDQASISCRSSHYIVHSDGNTYLEWYLQKPGQSPKLLIYKVSNRFSGVPDRFSGSGSGTDFTLKISRVEAEDLGIYYCFQGSHVPLTFGAGTKLELKR |  |  |  |  | 4.4 |  | 24 |  |  |  | 
Nanobody 07B11 with Tag-1 (VHH, periplasmic extract in the screening FACS) VHH: EVQLVESGGNLVQAGGSLGLSCAASVSISSIHIMGWYRQAPGKQRDLVATITSGGSTAYADSVKGRFTVSKDNAKNTVYLQMDSLKPEDTSVYYCAAEVRNGVFGKWNHYWGQGTQVTVSS | 0.041 | 110 | 42900 | 4.1 |  |  |  |  |  |  | 
Nanobody 07B11 with Tag-2 (VHH, Purified from E. coli periplasm) VHH: EVQLVESGGNLVQAGGSLGLSCAASVSISSIHIMGWYRQAPGKQRDLVATITSGGSTAYADSVKGRFTVSKDNAKNTVYLQMDSLKPEDTSVYYCAAEVRNGVFGKWNHYWGQGTQVTVSS |  |  |  |  | 96.1 |  | 75 | binds | 24900 |  | no binding (tested: 800 nM)
